According to publication PMC9896810, “Crk proteins activate the Rap1 guanine nucleotide exchange factor C3G by segregated adaptor-dependent and -independent mechanisms” (Cell Communication and Signaling : CCS, 2023):
“And” between values parts separate entries of the source, which are not always exact repeats. Equal values may be shown once.

T1: C3G (full-length, residues 4-1077) (human, UniProt Q13905-1 4-1077)
T1 construct: also called C3G WT; RapGEF1; source: E. coli BL21 (DE3), purified (IMAC, TEV digestion, reversed IMAC, SEC); not shown: His, N-terminal, cleaved; Halo, N-terminal, cleaved
T1 sequence (looked up): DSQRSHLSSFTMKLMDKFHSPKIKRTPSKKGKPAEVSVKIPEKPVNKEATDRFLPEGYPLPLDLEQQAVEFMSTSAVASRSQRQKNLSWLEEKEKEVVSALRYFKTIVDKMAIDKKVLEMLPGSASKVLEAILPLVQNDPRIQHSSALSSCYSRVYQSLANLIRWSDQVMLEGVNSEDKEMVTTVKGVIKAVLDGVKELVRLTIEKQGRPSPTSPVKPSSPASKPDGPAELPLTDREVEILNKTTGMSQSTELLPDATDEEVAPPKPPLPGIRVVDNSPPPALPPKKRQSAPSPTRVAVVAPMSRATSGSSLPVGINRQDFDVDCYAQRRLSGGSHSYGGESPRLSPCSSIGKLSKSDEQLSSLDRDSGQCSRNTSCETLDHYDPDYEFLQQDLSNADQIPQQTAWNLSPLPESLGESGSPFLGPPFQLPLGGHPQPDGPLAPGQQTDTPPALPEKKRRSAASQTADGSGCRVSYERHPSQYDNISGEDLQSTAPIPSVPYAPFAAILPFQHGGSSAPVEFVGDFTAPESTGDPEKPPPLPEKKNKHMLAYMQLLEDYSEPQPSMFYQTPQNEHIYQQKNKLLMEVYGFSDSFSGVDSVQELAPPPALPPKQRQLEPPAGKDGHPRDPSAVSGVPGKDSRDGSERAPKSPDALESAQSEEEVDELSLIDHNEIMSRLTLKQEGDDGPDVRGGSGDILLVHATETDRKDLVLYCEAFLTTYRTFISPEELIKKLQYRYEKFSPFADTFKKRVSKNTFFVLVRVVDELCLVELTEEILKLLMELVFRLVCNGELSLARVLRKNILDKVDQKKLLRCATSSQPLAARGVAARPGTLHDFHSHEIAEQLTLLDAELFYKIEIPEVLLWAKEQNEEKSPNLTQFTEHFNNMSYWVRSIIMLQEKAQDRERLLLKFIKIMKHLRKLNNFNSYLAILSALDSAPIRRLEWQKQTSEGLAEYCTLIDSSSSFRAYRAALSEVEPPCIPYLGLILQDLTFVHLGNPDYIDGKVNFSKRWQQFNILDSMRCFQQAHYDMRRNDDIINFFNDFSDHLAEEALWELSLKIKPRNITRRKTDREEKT

B1: CrkL (full-length) (natural protein, human, UniProt P46109 1-303, looked up)
chain: MSSARFDSSDRSAWYMGPVSRQEAQTRLQGQRHGMFLVRDSSTCPGDYVLSVSENSRVSHYIINSLPNRRFKIGDQEFDHLPALLEFYKIHYLDTTTLIEPAPRYPSPPMGSVSAPNLPTAEDNLEYVRTLYDFPGNDAEDLPFKKGEILVIIEKPEEQWWSARNKDGRVGMIPVPYVEKLVRSSPHGKHGNRNSNSYGIPEPAHAYAQPQTTTPLPAVSGSPGAAITPLPSTQNGPVFAKAIQKRVPCAYDKTALALEVGDIVKVTRMNINGQWEGEVNGRKGLFPFTHVKIFDPQNPDENE
notes: human CrkL, residues 1-303, in pETEV15b; also called Crk-like protein; source: E. coli BL21 (DE3), purified (IMAC, TEV digestion, SEC); not shown: His, N-terminal, cleaved
B2: CrkL-SH3N (domain or fragment, human, UniProt P46109 125-182, looked up)
chain: LEYVRTLYDFPGNDAEDLPFKKGEILVIIEKPEEQWWSARNKDGRVGMIPVPYVEKLV
notes: human CrkL, SH3N domain, residues 125-182, in pETEV15b; source: E. coli BL21 (DE3), purified (IMAC, TEV digestion, SEC); not shown: His, N-terminal, cleaved

How the values were obtained:
[1] = molecular target: T1, C3G (full-length, residues 4-1077); experiment: ITC; C3G in the cell titrated with CrkL in the syringe, 25 °C, 300 mM NaCl, pH 7.5; each titration analysed individually with Origin ITC, independent-site model; conditions: both partners purified
[2] = molecular target: T1, C3G (full-length, residues 4-1077); experiment: ITC; C3G or pC3G in the cell titrated with the Crk protein, 25 °C, 300 mM NaCl, pH 7.5; global fit of three titrations with SEDPHAT, three symmetric binding sites, microscopic kd; conditions: both partners purified

Binder | Kd [1] | stoichiometry N [1] | Kd [2]
B1 | 3300 nM | 3.2 and 2.8 and 2.9 | 
B2 |  |  | 1600 nM
